The results in this text go back to patent US20110311544A1.

Test [1] has as its target CD71 (transferrin receptor) on human tumour cell lines (human) (UniProt P02786). Kind of test: flow cytometry, biotin-OKT9 on A375 cells after pre-incubation with control ascites NS1 at 4° C. (no competitor). Background: A flow cytometer gives signals particle by particle.
Test [2] has the same target. Kind of test: flow cytometry, biotin-OKT9 on A375 cells after pre-incubation with control ascites NS1 at 37° C. (no competitor).
For test [3] the target is unchanged. Kind of test: quantitative flow cytometry on A375 cells, background control, medium FCS, no Tf-Fe.
For test [4] the target is unchanged. Kind of test: quantitative flow cytometry on A375 cells, background control, medium FCS, with Tf-Fe.
For test [5] the target is unchanged. Kind of test: quantitative flow cytometry on A375 cells, background control, medium human AB serum, no Tf-Fe.
Test [6] has the same target. Kind of test: quantitative flow cytometry on A375 cells, background control, medium human AB serum, with Tf-Fe.

Sequence of UniProt P02786 (P02786 whole entry): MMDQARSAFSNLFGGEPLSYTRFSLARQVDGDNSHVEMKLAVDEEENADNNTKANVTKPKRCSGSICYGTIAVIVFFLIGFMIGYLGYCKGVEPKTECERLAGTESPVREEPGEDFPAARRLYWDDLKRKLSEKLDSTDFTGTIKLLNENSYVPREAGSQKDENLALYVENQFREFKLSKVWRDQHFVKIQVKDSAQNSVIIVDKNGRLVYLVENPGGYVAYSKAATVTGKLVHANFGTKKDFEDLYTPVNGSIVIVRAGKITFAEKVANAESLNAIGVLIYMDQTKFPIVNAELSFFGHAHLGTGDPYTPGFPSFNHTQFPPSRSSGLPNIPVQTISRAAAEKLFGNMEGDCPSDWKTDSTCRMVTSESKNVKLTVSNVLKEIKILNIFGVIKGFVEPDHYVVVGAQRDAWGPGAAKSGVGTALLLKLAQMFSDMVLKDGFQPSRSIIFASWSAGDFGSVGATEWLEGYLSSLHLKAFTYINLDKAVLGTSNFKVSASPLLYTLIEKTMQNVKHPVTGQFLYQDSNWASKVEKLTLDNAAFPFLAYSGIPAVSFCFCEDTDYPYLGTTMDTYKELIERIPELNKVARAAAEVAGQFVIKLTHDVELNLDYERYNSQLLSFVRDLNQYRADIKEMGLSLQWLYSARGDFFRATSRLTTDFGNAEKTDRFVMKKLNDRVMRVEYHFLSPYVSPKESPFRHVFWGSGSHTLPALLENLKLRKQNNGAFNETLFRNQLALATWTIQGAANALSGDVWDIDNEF

Take “biotin-labeled anti-CD71 mAb OKT9 (antibody)”: the Mean Fluorescence intensity was 6.53 in test [1] and 8.84 in test [2].

For control ascites NS1, the Sites is 3250 sites in test [3], 3310 sites in test [4], 5790 sites in test [5] and 5790 sites in test [6].
